According to the supplement of paper PMC9112550, “Optimization of the antimicrobial peptide Bac7 by deep mutational scanning” (BMC Biology, 2022):

System: Escherichia coli TOP10
Assay: shrunken log2 fold change of peptide-encoding DNA abundance (4.5 h post-induction vs induction); higher = less antimicrobial activity (less host growth inhibition)
Settings: time post-induction: 4.5 h; library: site-saturation at positions 5, 18, 19, 20
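Also: peptides expressed intracellularly from a pBAD plasmid library in pooled LB shake-flask culture, induced with 0.3% L-arabinose, DNA abundance read by NGS, three biological replicates, DESeq2 with apeglm shrinkage.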

Sequence	shrunken log2 fold change
RRIRGRPPRLPRPRPRPNKPPRP	-0.035
RRIRCRPPRLPRPRPRPRKYPRP	-0.458
RRIRFRPPRLPRPRPRPEFWPRP	0.264
RRIRVRPPRLPRPRPRPLHYPRP	-0.088
RRIRARPPRLPRPRPRPIEAPRP	0.213
RRIRPRPPRLPRPRPRPTPAPRP	0.618
RRIRGRPPRLPRPRPRPPKLPRP	0.524
RRIRDRPPRLPRPRPRPSLCPRP	-0.0148
RRIRMRPPRLPRPRPRPPFGPRP	0.789
RRIRRRPPRLPRPRPRPPSNPRP	0.0633
RRIRLRPPRLPRPRPRPTGNPRP	-0.044
RRIRWRPPRLPRPRPRPWNYPRP	-0.98
RRIRTRPPRLPRPRPRPICRPRP	0.0229
RRIRFRPPRLPRPRPRPTCYPRP	-0.23
RRIRLRPPRLPRPRPRPMLWPRP	0.00318
RRIRYRPPRLPRPRPRPDLEPRP	-0.0757
RRIRRRPPRLPRPRPRPVKQPRP	-0.0104
RRIRYRPPRLPRPRPRPRKYPRP	-0.333
RRIRWRPPRLPRPRPRPNFHPRP	-0.0344
RRIRHRPPRLPRPRPRPTTDPRP	-0.136
RRIRRRPPRLPRPRPRPVHTPRP	0.0317
RRIRGRPPRLPRPRPRPTFRPRP	-0.135
RRIRKRPPRLPRPRPRPSDRPRP	0.0691
RRIRYRPPRLPRPRPRPAIEPRP	0.0193
RRIRRRPPRLPRPRPRPCRNPRP	0.0376

Sequence	shrunken log2 fold change
RRIRERPPRLPRPRPRPPLCPRP	0.124
RRIRMRPPRLPRPRPRPKHIPRP	-0.0498
RRIRFRPPRLPRPRPRPNPAPRP	0.0261
RRIRARPPRLPRPRPRPQNSPRP	-0.23
RRIRTRPPRLPRPRPRPHHVPRP	0.0387
RRIRDRPPRLPRPRPRPEYGPRP	0.305
RRIRYRPPRLPRPRPRPWQHPRP	-0.185
RRIRMRPPRLPRPRPRPSPEPRP	1.12
RRIRHRPPRLPRPRPRPQHDPRP	-0.281
RRIRMRPPRLPRPRPRPKNAPRP	0.901
RRIRPRPPRLPRPRPRPYFAPRP	-0.0984
RRIRERPPRLPRPRPRPSTDPRP	-0.332
RRIRNRPPRLPRPRPRPLDAPRP	0.0657
RRIRLRPPRLPRPRPRPIVIPRP	-1.37
RRIRPRPPRLPRPRPRPLATPRP	0.605
RRIRQRPPRLPRPRPRPHKIPRP	0.00423
RRIRYRPPRLPRPRPRPTAQPRP	0.0778
RRIRRRPPRLPRPRPRPPIWPRP	2.59
RRIRFRPPRLPRPRPRPLSSPRP	-0.307
RRIRTRPPRLPRPRPRPYKDPRP	-0.308
RRIRPRPPRLPRPRPRPHNCPRP	-0.111
RRIRIRPPRLPRPRPRPEFGPRP	0.129
RRIRTRPPRLPRPRPRPVPAPRP	0.35
RRIRNRPPRLPRPRPRPTIPPRP	-0.605
RRIRMRPPRLPRPRPRPVDQPRP	0.0463

Sequence	shrunken log2 fold change
RRIRQRPPRLPRPRPRPTWPPRP	0.268
RRIRTRPPRLPRPRPRPCMRPRP	-0.0225
RRIRNRPPRLPRPRPRPESQPRP	-0.00881
RRIRIRPPRLPRPRPRPTSFPRP	-0.11
RRIRIRPPRLPRPRPRPWDVPRP	-0.468
RRIRDRPPRLPRPRPRPSMYPRP	-0.105
RRIRNRPPRLPRPRPRPCETPRP	-0.0224
RRIRRRPPRLPRPRPRPSILPRP	0.197
RRIRSRPPRLPRPRPRPAWYPRP	-0.3
RRIRSRPPRLPRPRPRPLHIPRP	-0.0437
RRIRMRPPRLPRPRPRPEHEPRP	0.0191
RRIRYRPPRLPRPRPRPTGDPRP	0.00498
RRIRLRPPRLPRPRPRPNASPRP	0.0769
RRIRIRPPRLPRPRPRPRVKPRP	-0.0816
RRIRNRPPRLPRPRPRPRAAPRP	0.601
RRIRFRPPRLPRPRPRPKHGPRP	0.405
RRIRMRPPRLPRPRPRPELCPRP	3.34
RRIRCRPPRLPRPRPRPSGAPRP	0.176
RRIRHRPPRLPRPRPRPCPTPRP	-0.258
RRIRYRPPRLPRPRPRPNDQPRP	-0.819
RRIRSRPPRLPRPRPRPLAHPRP	-0.0709
RRIRARPPRLPRPRPRPQYCPRP	-0.0903
RRIRVRPPRLPRPRPRPHQEPRP	0.113
RRIRIRPPRLPRPRPRPMGAPRP	-0.341
RRIRGRPPRLPRPRPRPKDCPRP	0.427
